{"source": "patent US20220289795", "about": "“EFFICIENT METHOD FOR PREPARING PPR PROTEIN AND USE OF THE SAME” (EditForce, Inc., published 2022)", "binders": {"B1": {"name": "RNA_12 (ssRNA)", "RNA": "GACAUGCGACUCAGGAAUCGGCUCUGACUG"}, "B2": {"name": "RNA_11 (ssRNA)", "RNA": "GACAUGCGGUGGUGAGGCCCUGGGCGACUG"}, "B3": {"name": "RNA_10 (ssRNA)", "RNA": "GACAUGCCAAACUUUCACUUUGAAAGACUG"}}, "experiment_in_all_cases": "ELONA; RPB-ELISA", "key": {"[1]": {"target": "T1, NL_v2_PPR12 (Artificial Sequence)", "T1 chain": "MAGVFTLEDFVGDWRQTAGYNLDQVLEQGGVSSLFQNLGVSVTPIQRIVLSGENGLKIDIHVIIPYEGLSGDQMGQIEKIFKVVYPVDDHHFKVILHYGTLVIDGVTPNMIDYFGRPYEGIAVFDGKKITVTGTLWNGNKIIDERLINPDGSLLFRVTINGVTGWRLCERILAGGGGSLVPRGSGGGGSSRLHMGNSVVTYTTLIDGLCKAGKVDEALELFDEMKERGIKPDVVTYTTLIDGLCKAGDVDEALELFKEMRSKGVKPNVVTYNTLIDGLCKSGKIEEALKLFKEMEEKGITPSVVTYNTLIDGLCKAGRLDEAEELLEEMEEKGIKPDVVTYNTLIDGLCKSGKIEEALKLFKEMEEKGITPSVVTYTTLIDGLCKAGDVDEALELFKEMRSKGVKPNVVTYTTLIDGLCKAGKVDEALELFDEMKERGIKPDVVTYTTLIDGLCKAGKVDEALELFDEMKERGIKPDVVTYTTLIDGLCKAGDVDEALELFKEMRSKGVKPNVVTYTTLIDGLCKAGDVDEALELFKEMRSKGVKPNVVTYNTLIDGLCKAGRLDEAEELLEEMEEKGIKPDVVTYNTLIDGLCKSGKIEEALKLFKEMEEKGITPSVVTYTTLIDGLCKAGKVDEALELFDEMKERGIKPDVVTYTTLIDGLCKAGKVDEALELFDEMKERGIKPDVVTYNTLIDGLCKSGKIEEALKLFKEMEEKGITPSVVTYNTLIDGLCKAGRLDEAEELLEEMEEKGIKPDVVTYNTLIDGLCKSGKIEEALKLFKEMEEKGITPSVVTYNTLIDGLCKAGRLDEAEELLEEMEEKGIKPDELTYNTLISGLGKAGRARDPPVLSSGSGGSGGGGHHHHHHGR", "conditions": "tags: N-term luciferase, C-term 6xHis; label: 5'-biotin"}, "[2]": {"target": "T2, v3.1_PPR12 (Artificial Sequence)", "T2 chain": "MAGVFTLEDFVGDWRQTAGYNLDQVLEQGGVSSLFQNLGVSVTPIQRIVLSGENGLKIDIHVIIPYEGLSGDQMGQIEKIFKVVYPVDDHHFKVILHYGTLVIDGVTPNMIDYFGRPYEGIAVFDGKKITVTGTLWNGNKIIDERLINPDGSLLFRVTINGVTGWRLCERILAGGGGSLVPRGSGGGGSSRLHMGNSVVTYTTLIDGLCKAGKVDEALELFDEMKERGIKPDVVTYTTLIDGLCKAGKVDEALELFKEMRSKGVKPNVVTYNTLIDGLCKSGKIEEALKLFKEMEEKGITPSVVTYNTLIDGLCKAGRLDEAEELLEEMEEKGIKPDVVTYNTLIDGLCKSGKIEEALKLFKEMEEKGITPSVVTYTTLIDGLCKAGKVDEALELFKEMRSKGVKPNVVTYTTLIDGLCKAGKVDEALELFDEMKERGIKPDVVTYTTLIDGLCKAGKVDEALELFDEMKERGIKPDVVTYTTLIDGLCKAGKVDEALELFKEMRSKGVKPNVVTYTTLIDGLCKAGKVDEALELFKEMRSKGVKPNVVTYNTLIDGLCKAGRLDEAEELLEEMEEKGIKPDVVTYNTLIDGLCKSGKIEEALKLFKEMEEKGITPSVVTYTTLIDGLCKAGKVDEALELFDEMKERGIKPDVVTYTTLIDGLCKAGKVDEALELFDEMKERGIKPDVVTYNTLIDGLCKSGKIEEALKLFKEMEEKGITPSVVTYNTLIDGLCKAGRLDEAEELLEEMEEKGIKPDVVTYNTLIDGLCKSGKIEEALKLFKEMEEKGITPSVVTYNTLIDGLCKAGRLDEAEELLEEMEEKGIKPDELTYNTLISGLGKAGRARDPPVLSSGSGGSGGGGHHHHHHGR", "conditions": "tags: luciferase fusion; label: 5'-biotin"}, "[3]": {"target": "T3, v3.1_PPR11 (Artificial Sequence)", "T3 chain": "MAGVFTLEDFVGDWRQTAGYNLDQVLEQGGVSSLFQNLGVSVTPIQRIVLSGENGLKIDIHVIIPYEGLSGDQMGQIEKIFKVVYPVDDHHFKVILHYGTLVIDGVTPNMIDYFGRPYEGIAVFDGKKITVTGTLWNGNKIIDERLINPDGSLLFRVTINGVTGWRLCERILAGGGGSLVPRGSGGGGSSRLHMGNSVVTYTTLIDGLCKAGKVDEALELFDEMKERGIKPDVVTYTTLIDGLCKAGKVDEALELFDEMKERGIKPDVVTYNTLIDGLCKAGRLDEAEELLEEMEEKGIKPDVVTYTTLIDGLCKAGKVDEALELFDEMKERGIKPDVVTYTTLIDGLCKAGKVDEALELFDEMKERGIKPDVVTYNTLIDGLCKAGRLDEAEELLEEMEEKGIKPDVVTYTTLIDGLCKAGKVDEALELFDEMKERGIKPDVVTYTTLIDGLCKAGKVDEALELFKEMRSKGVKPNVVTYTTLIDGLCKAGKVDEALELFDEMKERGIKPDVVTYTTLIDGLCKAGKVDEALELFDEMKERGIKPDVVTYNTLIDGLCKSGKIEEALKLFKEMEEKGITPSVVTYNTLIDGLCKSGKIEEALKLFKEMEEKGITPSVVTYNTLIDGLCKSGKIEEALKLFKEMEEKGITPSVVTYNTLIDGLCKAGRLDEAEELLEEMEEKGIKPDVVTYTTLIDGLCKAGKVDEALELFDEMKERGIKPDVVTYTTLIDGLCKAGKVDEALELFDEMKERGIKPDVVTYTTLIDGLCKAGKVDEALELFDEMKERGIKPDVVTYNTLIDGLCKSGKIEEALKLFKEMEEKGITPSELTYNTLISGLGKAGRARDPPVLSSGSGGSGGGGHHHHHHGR", "conditions": "tags: luciferase fusion; label: 5'-biotin"}, "[4]": {"target": "T4, NL_v2_PPR11 (Artificial Sequence)", "T4 chain": "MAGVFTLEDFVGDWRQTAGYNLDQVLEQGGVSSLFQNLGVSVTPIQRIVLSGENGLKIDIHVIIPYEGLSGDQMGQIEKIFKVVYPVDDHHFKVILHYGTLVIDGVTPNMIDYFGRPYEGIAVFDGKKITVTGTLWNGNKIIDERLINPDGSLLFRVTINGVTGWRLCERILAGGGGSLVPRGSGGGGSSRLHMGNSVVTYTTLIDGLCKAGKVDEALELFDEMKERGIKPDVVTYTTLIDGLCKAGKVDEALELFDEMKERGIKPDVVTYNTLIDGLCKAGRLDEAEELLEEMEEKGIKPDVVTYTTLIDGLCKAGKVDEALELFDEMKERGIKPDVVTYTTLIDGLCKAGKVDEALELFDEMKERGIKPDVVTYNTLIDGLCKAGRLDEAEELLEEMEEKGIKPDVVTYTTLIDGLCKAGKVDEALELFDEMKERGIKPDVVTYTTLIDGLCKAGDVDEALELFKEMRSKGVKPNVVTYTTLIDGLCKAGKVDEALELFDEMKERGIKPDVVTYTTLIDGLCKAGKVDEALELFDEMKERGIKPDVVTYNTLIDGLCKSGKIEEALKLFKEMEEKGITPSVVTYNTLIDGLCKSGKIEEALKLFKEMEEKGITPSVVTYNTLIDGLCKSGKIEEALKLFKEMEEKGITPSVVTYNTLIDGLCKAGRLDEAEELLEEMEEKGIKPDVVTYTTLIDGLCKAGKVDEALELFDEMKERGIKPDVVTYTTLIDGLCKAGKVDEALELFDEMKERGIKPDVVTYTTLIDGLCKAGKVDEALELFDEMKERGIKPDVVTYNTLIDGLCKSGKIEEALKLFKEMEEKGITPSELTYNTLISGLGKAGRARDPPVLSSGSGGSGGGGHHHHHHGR", "conditions": "tags: N-term luciferase, C-term 6xHis; label: 5'-biotin"}, "[5]": {"target": "T5, v3.1_PPR10 (Artificial Sequence)", "T5 chain": "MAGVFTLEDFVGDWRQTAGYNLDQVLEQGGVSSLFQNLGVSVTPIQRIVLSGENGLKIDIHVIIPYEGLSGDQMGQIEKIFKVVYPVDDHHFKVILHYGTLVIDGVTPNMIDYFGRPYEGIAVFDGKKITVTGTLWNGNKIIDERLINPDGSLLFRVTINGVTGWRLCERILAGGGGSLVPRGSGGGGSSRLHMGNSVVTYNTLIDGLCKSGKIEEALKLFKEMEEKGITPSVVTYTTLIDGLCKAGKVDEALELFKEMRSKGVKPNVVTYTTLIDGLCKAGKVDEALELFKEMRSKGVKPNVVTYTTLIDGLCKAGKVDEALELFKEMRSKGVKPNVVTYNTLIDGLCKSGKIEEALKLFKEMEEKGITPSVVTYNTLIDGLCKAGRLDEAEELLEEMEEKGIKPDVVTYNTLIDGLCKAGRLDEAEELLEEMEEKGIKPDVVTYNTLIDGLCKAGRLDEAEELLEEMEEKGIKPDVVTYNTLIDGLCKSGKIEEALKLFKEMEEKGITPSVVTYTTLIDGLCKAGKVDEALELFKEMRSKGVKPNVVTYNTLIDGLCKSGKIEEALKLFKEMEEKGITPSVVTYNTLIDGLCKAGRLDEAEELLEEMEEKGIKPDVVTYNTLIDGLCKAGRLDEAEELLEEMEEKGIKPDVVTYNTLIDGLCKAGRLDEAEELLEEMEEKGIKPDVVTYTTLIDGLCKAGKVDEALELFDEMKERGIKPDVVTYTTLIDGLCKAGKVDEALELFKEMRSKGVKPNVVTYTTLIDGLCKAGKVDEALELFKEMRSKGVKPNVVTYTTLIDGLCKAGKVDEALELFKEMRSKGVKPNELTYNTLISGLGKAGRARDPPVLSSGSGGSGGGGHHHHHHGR", "conditions": "tags: luciferase fusion; label: 5'-biotin"}, "[6]": {"target": "T6, NL_v2_PPR10 (Artificial Sequence)", "T6 chain": "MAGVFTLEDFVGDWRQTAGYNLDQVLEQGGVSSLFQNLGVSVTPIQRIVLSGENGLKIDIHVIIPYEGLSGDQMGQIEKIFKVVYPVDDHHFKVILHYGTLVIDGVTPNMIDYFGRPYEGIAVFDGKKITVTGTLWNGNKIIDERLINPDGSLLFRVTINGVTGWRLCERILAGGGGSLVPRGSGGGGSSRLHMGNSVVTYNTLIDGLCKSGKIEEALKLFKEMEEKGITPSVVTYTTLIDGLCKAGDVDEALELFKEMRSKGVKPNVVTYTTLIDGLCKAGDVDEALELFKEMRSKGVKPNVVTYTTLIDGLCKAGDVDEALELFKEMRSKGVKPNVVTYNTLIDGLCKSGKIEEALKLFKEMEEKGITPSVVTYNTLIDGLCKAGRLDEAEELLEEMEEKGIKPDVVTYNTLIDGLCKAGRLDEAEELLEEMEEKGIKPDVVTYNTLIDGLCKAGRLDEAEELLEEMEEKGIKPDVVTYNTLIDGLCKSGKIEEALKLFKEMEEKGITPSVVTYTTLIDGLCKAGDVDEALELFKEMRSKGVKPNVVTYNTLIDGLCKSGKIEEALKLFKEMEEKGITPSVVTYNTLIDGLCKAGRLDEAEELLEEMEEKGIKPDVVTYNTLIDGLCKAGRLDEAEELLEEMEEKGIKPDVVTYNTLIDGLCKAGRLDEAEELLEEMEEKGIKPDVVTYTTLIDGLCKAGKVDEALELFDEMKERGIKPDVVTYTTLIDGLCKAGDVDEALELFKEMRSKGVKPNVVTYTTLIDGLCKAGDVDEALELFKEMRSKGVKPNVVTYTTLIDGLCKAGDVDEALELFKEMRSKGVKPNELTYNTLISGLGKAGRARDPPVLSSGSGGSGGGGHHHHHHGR", "conditions": "tags: N-term luciferase, C-term 6xHis; label: 5'-biotin"}}}
{"binder": "B1", "values": [{"measurement": "binding signal", "setting": "[1]", "result": "3.8e+07", "unit": "luminescence"}, {"measurement": "binding signal", "setting": "[2]", "result": "1.8e+07", "unit": "luminescence"}]}
{"binder": "B2", "values": [{"measurement": "binding signal", "setting": "[3]", "result": "2.6e+07", "unit": "luminescence"}, {"measurement": "binding signal", "setting": "[4]", "result": "1.2e+07", "unit": "luminescence"}]}
{"binder": "B3", "values": [{"measurement": "binding signal", "setting": "[5]", "result": "5.8e+07", "unit": "luminescence"}, {"measurement": "binding signal", "setting": "[6]", "result": "7.8e+06", "unit": "luminescence"}]}
